Target: the molecule itself
Test: crystal structure

Row | Protein | stoichiometry N
1 | Bartonella grahamii strain as4aup VirB8, soluble C-terminal periplasmic domain (domain or fragment) ALTPLKTVEPFVIRVDNSTGIIDTVSALKESPNDYDEAITRYFASQYVRAREGFQASEAENNFRLVSLLSSPKEQNRFGKWYAGNNPESPQNIYHNMIATVTIKSISFISKDLIQVRYYKTVRDFNEKENISHWISILNFSYVNAHISTSDRLINPLGFQVSEYRSDPEVIK | 2
2 | Bartonella grahamii strain as4aup TrwG, soluble C-terminal periplasmic domain (domain or fragment) QPAPTPLVLRVDNTTGAVDVISVMREHETSYGEVVDRYWLNQYVLNRENYDYDTIQLNYDTTALLSAASVQQEYYKIYDGENARDKVLSNKARITVKVRSIQLNGLGQATVRFTTQQLDSSGATTGPKQHQIATIGYTYVGAPMKSSDRLLNPLGFQITSYRSDPEILLND | 2
3 | Bartonella birtlesii strain LL-WM9 TrwG, soluble C-terminal periplasmic domain (domain or fragment) QPAPTPLVLRVDNTTGAVDVISVMREHETSYGEVVDRYWLNQYVLNRETYDYDTIQLNYDTTALLSTAAVQQEFYKIYEGEDARDKVLSNKARITVKVRSIQPNGRGQATVRFTTQQHDSTGAVGVKQHQIATIGYTYVGAPMKSSDRLLNPLGFQVTSYRTDPEILLNN | 2

Reference: article PMC4676284 (mBio, 2015)
